Measurements: the DeepSol protein solubility set

test: soluble on expression in E. coli; label from the status in PepcDB or PDB records

Row | Sequence | soluble on expression in E. coli
1 | MGSSHHHHHHSSGLVPRGSHMRIGMVCPYSFDVPGGVQSHVLQLAEVLRDAGHEVSVLAPASPHVKLPDYVVSGGKAVPIPYNGSVARLRFGPATHRKVKKWIAEGDFDVLHIHEPNAPSLSMLALQAAEGPIVATFHTSTTKSLTLSVFQGILRPYHEKIIGRIAVSDLARRWQMEALGSDAVEIPNGVDVASFADAPLLDGYPREGRTVLFLGRYDEPRKGMAVLLAALPKLVARFPDVEILIVGRGDEDELREQAGDLAGHLRFLGQVDDATKASAMRSADVYCAPHLGGESFGIVLVEAMAAGTAVVASDLDAFRRVLADGDAGRLVPVDDADGMAAALIGILEDDQLRAGYVARASERVHRYDWSVVSAQIMRVYETVSGAGIKVQVSGAANRDETAGESV | soluble
2 | MSLIEPDHPQLSIGQQCKLLSISRSSFYYTPKGETDQNLSLMRQIDEQFLETPFFGVRQMTWHLRNEHHLVNEKRIRRLMRLMGLMPIYQKPNNTSRPGRGHKTYPYLLRGLRVDRPNQVWCSDITYLPMRRGFLYLVAIMDWHTRKVLAWRISNTLEADFCVEALNEAIHKFGPPEIMNTDQGSQFTSFAWTDRLRRSGVRISMDGKGRFLDNIFIERLWRTLKYECVYLHAWETGSEAKAGIRKWMTFYNSASLRPSFYVVEGNRFCEGHHHHHH | not soluble
3 | MNNVTFEQLQETLYHEKLANGLDVYILPKTGFNKTYATFTTKYGSIDSEFIPLNQKEALHVPDGIAHFLEHKMFEDEEGDVFQLFSKQGASCNAFTSFTRTAYLFSSTTNVKKNVETLLDFVQHPYFTEESVEKEKGIIGQEITMYDDNPDWRNYFGVIENMYEHHPVKIDIAGTIPSISKITKDLLYTCYETFYHPSNMLLFIVGPVDVNEMMTLVKENQGKKEFKPAGDIQRFFPAEPEKVAKPHSVISMSVQTPKCLVGYKEKQPVRQGKDLLVRELGINVLLELMFGQGSKQYEQLDDEGLINDTFSFDHTSEYGFGFTIMGGDTKSPNRLAERIEEMVEAFKEQPLDEAAVKRVIKKKIGGFLRSLNSPEFIANQFTRYEFNKMNLFDVVPTLESLTVEKLTDILHDHFQKERFTVCQVKPEGYEEG | not soluble
4 | MGSDKIHHHHHHEVRSTFINFFREKKEHTYVHSSSVIPHDDPTLLFANAGMNQFKPLFLGIADPNSDLAKLKRAVNTQKCIRAGGKHNDLDDVGKDVYHHTYFEMLGNWSFGDYFKKEIITWAWELLTTVYGIPAERLYVSVFGGDEANGVPADSEARDIWRSVGVPDERILNFGMKDNFWEMGDVGPCGPCSEIHYDRIGNRDASHLVNADDPMVVEIWNLVFIQFNREEGGVLKPLPAKHIDCGLGLERLIAVMQDKTSNYDTDIFQPIFEAIHKGSGVRAYTGFIGDEDKDGVDMAYRVVADHVRTLTIALSDGGRPDNSGRGYVLRRILRRGVRYASEKLNAQPGFFASLVPVVISILGETFPELSRDPVTVMDIINDEEKQFLKTLSRGRVLFQRAVQSLPEGTMTFPGDVSWRLYDTYGFPADLTQLMAEEKGLSVDNTAFEEARRKAIETSSAGTGKFRDTLDLDVHALAELQQKGVPTTDDSPKYAYTFTGEGSDAVYKFEPCVGKILAIRRDGKFVDQLAAGEEGAILLDRTNFYAEQGGQIYDVGVLTKVNDESNEFNVSNCQVRGGYIVLVGSAEGSFSVGDQVNERFDEDRKQLIMKNHTGTHVLNYALRKVLADSDQKGSLVAPDRMRFDFTNKAGMTVQQVKKAEEYAQQLIDTKGQVYAKNSPLGEAKKVKGLRAMFDETYPDPVRVVAVGTPVEQLLQNPDAEEGQNTTVEFCGGTHLQNVSHIGRIVIASEEAIAKGIRRIVALTGPEAER | not soluble
5 | MYIPNAFRESDTHNLQEHMDKTRLAILVTQGDDGLHATHLPLLLRSDEGPYGTLYGHMAKANPQWQQLNADAEAMVIFPGEDAYVSPSFYPSKAEHGKVVPTWNYLAVHAYGQAECFTDPDRLHQLLNDLTDRHESSRAQPWSINDAPADYIAKMLGAIVGFSIPVQRLQGKRKLSQNRSAEDMAGVRDGLGASHLANDQQIARLMSGWRPS | not soluble
6 | MEARTTDLSDLYPEGEALPMVFKSFGGRARFAGRVRTLRVFEDNALVRKVLEEEGAGQVLFVDGGGSLRTALLGGNLARRAWEKGWAGVVVHGAVRDTEELREVPIGLLALAATPKKSAKEGKGEVDVPLKVLGVEVLPGSFLLADEDGLLLLPEPPSGVRSGG | soluble
7 | MGHHHHHHSHMCNGSFTEKLKLLFKLHIPPAYTEVKSKDASKGDELSKEELLYFSQLHVSKPANEKEAESAKHSPEKGKGKIDIQAYLSQWQDELFKKEENIKDLPRMNQSQFIQFSKTLYNLFHEDPEEESLYQAIAVVTSLLLRMEEVGRKLHSPTSSAKGFSGTVCGSGGPSEEKTGSHLEKDPCSFREEPQWSFAFEQILASLLNEPALVRFFEKPIDVKAKLENARISQLRSRTKM | soluble
8 | MGSDKIHHHHHHMRPAFAGIDFGTSNSTVGVVRNGQPHLVALEGGQVTLPSAVFFNFEDGRICFGRQAIANYTDSVEGRLMRSLKSVLGSSLAHEKTRIKARSIGFMEIIGLFLGHLRKKLEEDGGDLVETVVLGRPVQFVDDDPQADANAQSDLEKAAHAQGFKHIAFQFEPIAAALDYEQRVTREELALIIDMGGGTSDFSVVRVSPERARLPDRKDDILASRGVHIGGTDFDRLLSIAHVMPQLGYLTPTKDGKRNLPASYFIDLATWQRINLVYTAKAMTHLRQIRYEAARADLVDRFIHIVEHRYGHALAALVEKAKIELTDLSSAEVAVRLSDVEFAAEITRDGLDATIAREIERVTATVAETMRDAAVKPSDITAVFLTGGSTAIPLARREILSLVPQASVIDGDMFGSVGLGLALDAQRKFG | not soluble
9 | MDLYEKIKLLASEKKMSIRQLEETLGFGNGVINRWRKNTPGSDKLKKVADYFNISVDYLLGRTDNPNSNNLEEDEITTFFRVNTEDLTESEKDQLREELKEYLEFMKSRLKNK | soluble
10 | MFDKKLSSNDWHIQKVEMNHQVYDIETMLADSAFREHEEEQDSSLNTALPEDKTAIEAKEQEQKEKRKRWYELFKKKPKPKSSMGEFVFDQKENRIYGKGYCNRYFASYVWQGDRHIGIEDSGISRKVCKDEHLMAFELEFMENFKGNFTVTKGKDTLILDNQKMKIYLKTP | not soluble
11 | MSLELTVFSIGDWGEKTECLVNVTTKMGSLESAMNPKFIISVGDNFYQRGVKSVEDAAWTEILEEPFGKLSKHLKVHSCLGDHDWRGSTTAQIDRTNYANNTRWYLPGYWWYEKVTFTSEVSLPSLFEKSGLGEISANNSFHFNSSKTENSTSCEIDCLDEIVDNLNTMVNRNNSWNEDLSYKTSISEYFSEKQVNSTAVFIYIDSWTLTQDPFKKTSISYKYSQLEFIEQTLKAAVFENVDWIILVTHYSIYSSGLHGPHTRLASILMPLIKKYRVDFIISGHDHHSEILVPEDFNSYFQIVGASSKEGHHHHHH | soluble
12 | GAMGDASRVRVSGQGLHEGHTFEPAEFIIDTRDAGYGGLSLSIEGPSKVDINTEDLEDGTCRVTYCPTEPGNYIINIKFADQHVPGSPFSVKVTGEGRVKESITRRRRAPSVANVGSHCDLSLKIPEISIQDMTAQVTSPSGKTHEAEIVEGENHTYCIRFVPAEMGTHTVSVKYKGQHVPGSPFQFTVGPLGEGGAHKVRAGGPGLERAEAGVPAEFSIWTREAGAGGLAIAVEGPSKAEISFEDRKDGSCGVAYVVQEPGDYEVSVKFNEEHIPDSPFVVPVASPS | soluble
13 | MSEVQQLPIRAVGEYVILVSEPAQAGDEEVTESGLIIGKRVQGEVPELCVVHSVGPDVPEGFCEVGDLTSLPVGQIRNVPHPFVALGLKQPKEIKQKFVTCHYKAIPCLYK | soluble
14 | MGSDKIHHHHHHMKLILSVESVRFPLTGIGRYTYELASRLQHAEQISDLRLFAGSRFLPELLKPSDQSDAVHGLKRFVQKNALAVEAYRRLMPLLRKRALRGHEDFIYHSTNFYLPPFAGPRVATFHDLSPFTWAHCHTPQIARYLQKELKLTLERADALITVSHHTRKELADYFGWPLERIHAVPLASSPQFHPRTPQALRETLARHGLELGGYSLFVGTIEPRKNIETLLNAYGRLPLALRQRWPLILSGYHGWRSEAIHSRIAQAQQEGWARYLGFVASEDLPLLFAGARLFTFPSHYEGFGLPVLEAMSSGVPVVCSNSSSLPEVAGSAALMCAPDDVEGLTGLLHQGLEDEAWRSAAVQRGLLHAGGFSWERCAQGTVEVYKSVKER | not soluble
15 | MSLTLRDVAAEAGVSPMTASNALRGKPGVKESTRAKVIAAAKKLNYRINLTASMLKSGRSNIIHVIVNEFDSPFYSKLTQALSNEIVSRGLIPFIEQTQYSPDAAEHALSSNPFSGQLFDGEILHATGLGTNVPLSKLNGGRPFVLLDACEETPTVDAVNFPNEEAERAAMQHLIDRGCRNIAIVGHRFAPRADLAHAQNAFALRLRGACGALSDAGLPYDESMVFEAGDVANGIIAGHAIAERILAARSGHGGTEFDGACCANDFAAFGVIRGLADRGLRVPQDVKVIGFDGVTSGSYTTPALSTIQVDFMQLAKFSVDMLSERIDHGADEALPPRRAIIGYQLVDRESTAEGHHHHHH | soluble
16 | MSLAIQLGKDYTMLSTPQPVADPKKVEVIEFFSYHCIHCYDDDPAFNAWSKTLPADVSFRKEQIVWQKSMEGFARMFATFNATGTFDKLHRAAFDAQIKQRVDLSKPEQFTGWIKQQKGVDSAKLLQTYNSFGINAQVARATKITRDYQIQGTPTVIVNGKYVVVTATPERMIQVMNELVAKAREGHHHHHH | soluble
17 | AGMDVRESISLQNQVSMNLAKHVITTVSQNSNVIFSPASINVVLSIIAAGSAGATKDQILSFLKFSSTDQLNSFSSEIVSAVLADGSANGGPKLSVANGAWIDKSLSFKPSFKQLLEDSYKAASNQADFQSKAVEVIAEVNSWAEKETNGLITEVLPEGSADSMTKLIFANALYFKGTWNEKFDESLTQEGEFHLLDGNKVTAPFMTSKKKQYVSAYDGFKVLGLPYLQGQDKRQFSMYFYLPDANNGLSDLLDKIVSTPGFLDNHIPRRQVKVREFKIPKFKFSFGFDASNVLKGLGLTSPFSGEEGLTEMVESPEMGKNLCVSNIFHKACIEVNEEGTEAAAASAGVIKLRGLLMEEDEIDFVADHPFLLVVTENITGVVLFIGQVVDPLH | soluble
18 | MGSDKIHHHHHHMLEPQDQKKLDELFSSMQEANGCFLGYPFAKDFDYEPLWRFMSLTGNNLGDPFEPGTYRVNSHAFECDVVDFFARLFRACSCEVWGYVTNGGTEGNIYGLYLARELYPNAVAYFSQDTHYSVSKGVRLLRLEHSVVRSQSNGEINYDDLAQKATRYRTRPAVVVANIGTTMKEGKDDTLKIRAVLHDVGISAIYVHSDAALCGPYAPLLNPKPAFDFADGADSITLSGHKFLGAPMPCGVVLSHKLHVQRVMRNIDYIGSSDTTLSGSRNAFTPIILWYAIRSLGIEGIKQTFQQCERLAAYTADELNVRGVSAWRNPNALTVVLPPVEDSIKTKWQIATQDVSHLVVTPGTTKQQADALIETISNRNR | not soluble
19 | MADVATKHPMEDEVKKTEASSLVGKLETDVEIKASADKFHHMFAGKPHHVSKASPGNIQGCDLHEGDWGTVGSIVFWNYVHDGEAKVAKERIEAVEPDKNLITFRVIEGDLMKEYKSFLLTIQVTPKPGGPGSIVHWHLEYEKISEEVAHPETLLQFCVEVSKEIDEHLLAEEEEVKTPETPSLVGKLETDVEIKASAEKFHHMFAGKPHHVSKASPGNIQGCDLHEGDWGQVGSIVFWNYVHGKEAKVAKERIEAVEPNKNLITFRVIDGDLMKEYKSFLLTIQVTPKLGGPGSIVHWHLEYEKISEEVAHPETLLQFCVEVSKEIDEHLLAEE | soluble
